Conditions: Bacillus subtilis (strain 168); pH 7; Thermal; CD; Potassium phosphate 10 mM; reversible: yes; whole UniProt chain shown

B1: Phosphocarrier protein HPr wild type, P08877 (protein)
chain: MAQKTFKVTADSGIHARPATVLVQTASKYDADVNLEYNGKTVNLKSIMGVMSLGIAKGAEITISASGADENDALNALEETMKSEGLGE
Tm: 72.6 °C | unfolding enthalpy (van 't Hoff): 74.9 kcal/mol
